Molecular target: HKU1 S 2P prefusion-stabilized ectodomain trimer (HCoV-HKU1, isolate  (N5 used), UniProt Q0ZME7, stabilised)
Experiment: SPR

B1: S2P6 Fab fragment (Fab, V domains shown)
VH: EVQLVQSGAEVKKPGASVKVSCKASGYTFTSQYMHWVRQAPGQGLEWIGIINPSGVHTSYAQKFQGRVTLTRDTSTSTLYMELSSLRSEDTAVYYCARGSPKGAFDYWGQGTLVTVSS
VL: not shown
B1 gave a Kd of about 120 nM.

From paper doi:10.1101/2021.05.09.442808 (bioRxiv, 2021)
